{"source": "paper PMC9167300", "about": "“The LCK-14-3-3ζ-TRPM8 axis regulates TRPM8 function/assembly and promotes pancreatic cancer malignancy” (Cell Death & Disease, 2022)", "binders": {"B1": {"name": "GST-tagged C-terminus of TRPM8 (GST-M8C) (domain or fragment, rat, UniProt Q8R455 980-1104, looked up)", "chain": "GYTVGIVQENNDQVWKFQRYFLVQEYCNRLNIPFPFVVFAYFYMVVKKCFKCCCKEKNTESSACCFRNEDNETLAWEGVMKENYLVKINTKANDNAEEMRHRFRQLDTKLNDLKGLLKEIANKIK", "notes": "C-terminus of rat TRPM8 (M8C), amino acids 980-1104, in pGEX-4T-1; source: E. coli BL21, purified (glutathione beads)"}}, "target": "T1, His-LCK fusion (human, UniProt P06239 1-509)", "T1 construct": "human LCK cDNA subcloned into pET28a(+); also called His-fused LCK; source: E. coli BL21, purified (Ni-NTA agarose)", "T1 sequence (P06239 whole entry, the tested form may be a part)": "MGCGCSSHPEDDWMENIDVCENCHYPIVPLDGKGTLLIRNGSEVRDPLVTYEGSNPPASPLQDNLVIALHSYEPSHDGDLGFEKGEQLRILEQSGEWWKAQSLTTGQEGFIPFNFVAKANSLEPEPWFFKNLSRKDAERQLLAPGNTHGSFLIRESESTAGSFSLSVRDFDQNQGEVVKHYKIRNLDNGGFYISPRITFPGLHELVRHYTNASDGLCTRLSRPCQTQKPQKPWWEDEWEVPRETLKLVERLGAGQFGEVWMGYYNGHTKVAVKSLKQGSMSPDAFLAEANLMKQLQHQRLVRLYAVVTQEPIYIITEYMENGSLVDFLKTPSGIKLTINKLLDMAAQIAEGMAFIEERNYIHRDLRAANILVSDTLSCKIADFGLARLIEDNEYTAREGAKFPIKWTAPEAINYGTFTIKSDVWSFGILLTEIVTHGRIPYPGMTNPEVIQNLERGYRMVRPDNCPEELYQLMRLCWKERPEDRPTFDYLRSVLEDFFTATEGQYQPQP", "experiment": "pull-down; protein-protein interaction assay in vitro: 150 μg His-LCK eluted from Ni-NTA incubated with GST or GST-M8C bound to GST-agarose beads, 1 h at room temperature; Western blot", "conditions": "both partners purified", "data": [{"binder": "B1", "values": [{"measurement": "binding result", "result": "binds"}]}]}
